Experimental data as given in the Immune Epitope Database (IEDB).

How the values were obtained:
HLA-A*26:01 = assay: IEDB peptide-MHC binding, purified MHC/direct/fluorescence; filed as Kd, often an IC50 or EC50 that approximates it; ≥ and ≤ were set here for values at or beyond the usual limits of such assays
HLA-B*44:02 = assay: as above
HLA-B*27:05 = assay: as above
HLA-A*24:03 = assay: as above
HLA-A*02:01 [1] = assay: as above
HLA-A*69:01 = assay: as above
HLA-B*35:01 = assay: as above
HLA-B*58:01 = assay: as above
HLA-A*11:01 [2] = assay: as above
HLA-A*01:01 = assay: as above
HLA-A*03:01 = assay: as above
HLA-A*31:01 = assay: as above
HLA-B*08:01 [3] = assay: as above
HLA-B*15:01 = assay: as above
HLA-B*40:01 = assay: as above
HLA-B*07:02 = assay: as above
HLA-A*29:02 = assay: as above; details: source organism: Vibrio cholerae O139
HLA-A*68:02 = assay: as above
HLA-B*18:01 = assay: as above
HLA-B*57:01 = assay: as above
HLA-B*46:01 = assay: as above
HLA-B*51:01 = assay: as above
HLA-B*27:03 = assay: as above
HLA-A*02:19 = assay: as above
HLA-A*02:11 = assay: as above; details: source organism: Vibrio cholerae O139
HLA-A*23:01 = assay: as above
HLA-A*02:03 = assay: as above; details: source organism: Vibrio cholerae O139
HLA-B*15:17 = assay: as above; details: source organism: Vibrio cholerae O139
HLA-A*02:12 = assay: as above
HLA-A*02:16 = assay: as above; details: source organism: Vibrio cholerae O139
HLA-A*11:01 [4] = assay: IEDB peptide-MHC binding, purified MHC/competitive/fluorescence; ≥ and ≤ were set here for values at or beyond the usual limits of such assays; details: source organism: Zaire ebolavirus
HLA-B*08:01 [5] = assay: as above; details: source organism: Zaire ebolavirus
HLA-A*02:01 [6] = assay: as above; details: source organism: Zaire ebolavirus
HLA-C*03:03 = assay: IEDB peptide-MHC binding, purified MHC/direct/fluorescence; filed as Kd, often an IC50 or EC50 that approximates it; ≥ and ≤ were set here for values at or beyond the usual limits of such assays
HLA-A*24:02 = assay: as above; details: source organism: Amur virus
HLA-C*14:02 = assay: as above; details: source organism: Mycobacterium tuberculosis str. Haarlem
HLA-C*15:02 = assay: as above; details: source organism: Mycobacterium tuberculosis str. Haarlem
HLA-B*39:01 = assay: as above; details: source organism: Cryptosporidium parvum Iowa II
[7] = source organism: Vibrio cholerae
[8] = source organism: Vibrio cholerae O139
[9] = source organism: Giardia lamblia ATCC 50803
[10] = source organism: Yersinia pestis
[11] = source organism: Escherichia coli O157:H7
[12] = source organism: Salmonella enterica subsp. enterica serovar Typhimurium
[13] = source organism: Cryptosporidium parvum Iowa II

DTDISQLHH
Kd (HLA-A*26:01; [7]): ≥ 20 µM
Kd (HLA-B*44:02; [7]): ≥ 20 µM
Kd (HLA-B*27:05; [7]): ≥ 20 µM
Kd (HLA-A*24:03; [7]): ≥ 20 µM
Kd (HLA-A*02:01 [1]; [7]): ≥ 20 µM
Kd (HLA-A*69:01; [7]): ≥ 20 µM
Kd (HLA-B*35:01; [7]): 0.542 µM
Kd (HLA-B*58:01; [7]): 2.68 µM
Kd (HLA-A*11:01 [2]; [7]): ≥ 20 µM
Kd (HLA-A*01:01; [7]): 0.358 µM
Kd (HLA-A*03:01; [7]): ≥ 20 µM
Kd (HLA-A*31:01; [7]): ≥ 20 µM
Kd (HLA-B*08:01 [3]; [7]): ≥ 20 µM
Kd (HLA-B*15:01; [7]): ≥ 20 µM
Kd (HLA-B*40:01; [7]): ≥ 20 µM
Kd (HLA-B*07:02; [7]): ≥ 20 µM

EKDSNHNVL
Kd (HLA-A*29:02): ≥ 20 µM
Kd (HLA-A*68:02; [8]): ≥ 20 µM
Kd (HLA-A*26:01; [8]): ≥ 20 µM
Kd (HLA-B*18:01; [8]): ≥ 20 µM
Kd (HLA-A*24:03; [8]): ≥ 20 µM
Kd (HLA-A*02:01 [1]; [8]): ≥ 20 µM
Kd (HLA-A*69:01; [8]): ≥ 20 µM
Kd (HLA-B*57:01; [8]): ≥ 20 µM
Kd (HLA-B*46:01; [8]): ≥ 20 µM
Kd (HLA-B*51:01; [8]): ≥ 20 µM
Kd (HLA-B*27:03; [8]): ≥ 20 µM
Kd (HLA-A*02:19; [8]): ≥ 20 µM
Kd (HLA-A*03:01; [8]): ≥ 20 µM
Kd (HLA-A*02:11): ≥ 20 µM
Kd (HLA-A*23:01; [8]): ≥ 20 µM
Kd (HLA-A*02:03): ≥ 20 µM
Kd (HLA-B*15:17): ≥ 20 µM
Kd (HLA-A*02:12; [8]): ≥ 20 µM
Kd (HLA-B*15:01; [8]): ≥ 20 µM
Kd (HLA-A*02:16): ≥ 20 µM

EVKKRDGVK
IC50 (HLA-A*11:01 [4]): 66.4 µM
IC50 (HLA-B*08:01 [5]): ≥ 211 µM

HILQKTERG
IC50 (HLA-A*02:01 [6]): ≥ 99.6 µM
IC50 (HLA-B*08:01 [5]): ≥ 365 µM

KLDSGAFTV
Kd (HLA-C*03:03; source organism: Mycobacterium tuberculosis str. Haarlem): ≥ 20 µM

MAVGVVLAL
Kd (HLA-C*03:03; source organism: Mycobacterium tuberculosis variant bovis BCG str. Pasteur 1173P2): 0.024 µM

PTKCGENLY
Kd (HLA-A*26:01; [9]): ≥ 20 µM
Kd (HLA-B*44:02; [9]): ≥ 20 µM
Kd (HLA-B*27:05; [9]): ≥ 20 µM
Kd (HLA-A*24:03; [9]): ≥ 20 µM
Kd (HLA-A*02:01 [1]; [9]): ≥ 20 µM
Kd (HLA-A*69:01; [9]): 12.9 µM
Kd (HLA-B*35:01; [9]): 5.2 µM
Kd (HLA-B*58:01; [9]): ≥ 20 µM
Kd (HLA-A*11:01 [2]; [9]): ≥ 20 µM
Kd (HLA-A*01:01; [9]): 7.76 µM
Kd (HLA-A*03:01; [9]): ≥ 20 µM
Kd (HLA-A*31:01; [9]): ≥ 20 µM
Kd (HLA-B*08:01 [3]; [9]): ≥ 20 µM
Kd (HLA-B*15:01; [9]): 2.36 µM
Kd (HLA-B*40:01; [9]): ≥ 20 µM
Kd (HLA-B*07:02; [9]): ≥ 20 µM

QYEKDPDEL
Kd (HLA-A*24:03; source organism: Amur virus): 13 µM
Kd (HLA-A*23:01; source organism: Amur virus): 11.5 µM
Kd (HLA-A*24:02): 4.65 µM

RYVGLYLPF
Kd (HLA-A*24:03; source organism: Mycobacterium tuberculosis): 0.0002 µM
Kd (HLA-C*14:02): ≤ 0.001 µM
Kd (HLA-C*15:02): ≥ 20 µM

TMPELAWAV
Kd (HLA-A*26:01; [10]): ≥ 20 µM
Kd (HLA-B*44:02; [10]): ≥ 20 µM
Kd (HLA-B*27:05; [10]): ≥ 20 µM
Kd (HLA-A*02:01 [1]; [10]): 0.0158 µM
Kd (HLA-A*69:01; [10]): 0.0078 µM
Kd (HLA-B*35:01; [10]): 0.42 µM
Kd (HLA-B*58:01; [10]): ≥ 20 µM
Kd (HLA-A*11:01 [2]; [10]): ≥ 20 µM
Kd (HLA-A*01:01; [10]): ≥ 20 µM
Kd (HLA-A*03:01; [10]): ≥ 20 µM
Kd (HLA-A*31:01; [10]): ≥ 20 µM
Kd (HLA-B*08:01 [3]; [10]): 15 µM
Kd (HLA-B*15:01; [10]): ≥ 20 µM
Kd (HLA-B*40:01; [10]): ≥ 20 µM
Kd (HLA-B*07:02; [10]): ≥ 20 µM

VVPLYDTPL
Kd (HLA-A*26:01; [11]): ≥ 20 µM
Kd (HLA-B*44:02; [11]): ≥ 20 µM
Kd (HLA-B*27:05; [11]): ≥ 20 µM
Kd (HLA-A*24:03; [11]): ≥ 20 µM
Kd (HLA-A*02:01 [1]; [11]): ≥ 20 µM
Kd (HLA-B*35:01; [12]): 0.315 µM
Kd (HLA-B*58:01; [11]): ≥ 20 µM
Kd (HLA-A*11:01 [2]; [11]): ≥ 20 µM
Kd (HLA-A*01:01; [11]): ≥ 20 µM
Kd (HLA-A*03:01; [11]): ≥ 20 µM
Kd (HLA-A*31:01; [11]): ≥ 20 µM
Kd (HLA-B*08:01 [3]; [11]): ≥ 20 µM
Kd (HLA-B*15:01; [12]): 1 µM
Kd (HLA-B*40:01; [11]): ≥ 20 µM
Kd (HLA-B*07:02; [12]): 8.95 µM

YFRNSGMTY
Kd (HLA-A*26:01; [7]): ≥ 20 µM
Kd (HLA-B*44:02; [7]): ≥ 20 µM
Kd (HLA-B*27:05; [7]): ≥ 20 µM
Kd (HLA-A*02:01 [1]; [7]): ≥ 20 µM
Kd (HLA-A*69:01; [7]): ≥ 20 µM
Kd (HLA-B*35:01; [7]): 0.11 µM
Kd (HLA-B*58:01; [7]): ≥ 20 µM
Kd (HLA-A*11:01 [2]; [7]): ≥ 20 µM
Kd (HLA-A*01:01; [7]): 1.46 µM
Kd (HLA-A*03:01; [7]): ≥ 20 µM
Kd (HLA-A*31:01; [7]): ≥ 20 µM
Kd (HLA-B*08:01 [3]; [7]): ≥ 20 µM
Kd (HLA-B*15:01; [7]): 0.0853 µM
Kd (HLA-B*40:01; [7]): ≥ 20 µM
Kd (HLA-B*07:02; [7]): ≥ 20 µM

YHMMKDEPV
IC50 (HLA-A*02:01 [6]): 42.3 µM
IC50 (HLA-B*08:01 [5]): ≥ 178 µM

YLAKLFLDH
Kd (HLA-B*39:01): ≥ 20 µM
Kd (HLA-A*68:02; [13]): ≥ 20 µM
Kd (HLA-A*26:01; [13]): ≥ 20 µM
Kd (HLA-B*18:01; [13]): ≥ 20 µM
Kd (HLA-A*69:01; [13]): ≥ 20 µM
Kd (HLA-B*57:01; [13]): ≥ 20 µM
Kd (HLA-B*46:01; [13]): ≥ 20 µM
Kd (HLA-B*51:01; [13]): ≥ 20 µM
Kd (HLA-B*27:03; [13]): ≥ 20 µM
Kd (HLA-A*02:19; [13]): ≥ 20 µM
Kd (HLA-A*02:12; [13]): ≥ 20 µM
